This note sets out measurements from publication PMC8249470, “Binding of guide piRNA triggers methylation of the unstructured N-terminal region of Aub leading to assembly of the piRNA amplification complex” (Nature Communications, 2021).

The target in assay [1] is Krimper eTud1 (residues 272-512) (Drosophila melanogaster) (UniProt A1ZAC4). Briefly: ITC; Malvern PEAQ ITC; 50 mM NaCl, 20 mM HEPES pH 7.5, 2 mM β-mercaptoethanol; Krimper Tudor domain with peptides. (In general: In ITC the heat of successive injections is recorded.)
Assay [2] deals with T1, Krimper eTud1 (residues 272-512) (Drosophila melanogaster, UniProt A1ZAC4).
T1 construct: Krimper eTud1 (residues 272-512) was cloned into a self-modified pSumo vector; 10xHis (N, cleaved yes); yeast SUMO (N, cleaved yes); made in house; host or cells: E. coli BL21(DE3) Rosetta
T1 sequence (A1ZAC4 272-512): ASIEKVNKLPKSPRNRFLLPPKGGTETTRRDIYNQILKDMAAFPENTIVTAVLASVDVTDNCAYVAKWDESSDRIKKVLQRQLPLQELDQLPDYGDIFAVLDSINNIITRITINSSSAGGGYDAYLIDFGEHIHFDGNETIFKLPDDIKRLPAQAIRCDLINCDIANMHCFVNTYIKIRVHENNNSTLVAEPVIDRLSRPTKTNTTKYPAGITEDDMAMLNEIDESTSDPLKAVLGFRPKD
Briefly: ITC analysis of Krimper eTud1 with Ago3 or Aub peptides. The format is binding. As to conditions: Fig. 1f. An excerpt: However, the region of Krimper responsible for Ago3 binding remained unknown. To study the Ago3-Krimper interaction, we expressed and purified eTud1 and eTud2 domains of Krimper (Fig. 1c) and tested their binding to peptides derived from the N-terminal Ago3 sequence using isothermal titration calorimetry (ITC) (Fig. 1f and Supplementary Fig. 1a). […] Thus, the two Tudor domains of Krimper have different binding preferences ensuring that Aub and Ago3 can bind Krimper simultaneously without direct competition for a binding site.
Krimper eTud1 (residues 272-512) was cloned into a self-modified pSumo vector with 10×His tag followed by a yeast sumo sequence. The plasmid was transformed into E. coli strain BL21(DE3) Rosseta and cultured at 37 °C in LB medium. The protein expression was induced by adding IPTG to a final concentration of 0.2 mM when the OD600 reached 0.7, and the cells were cooled to 16 °C. The recombinant expressed protein was purified using a HisTrap column (GE Healthcare). The […] plus yeast sumo tag was removed by ulp1 protease digestion followed by a second step HisTrap column (GE Healthcare). The target protein was further purified using MonoQ and Superdex G75 columns (GE Healthcare).
All ITC was performed using the Malvern PEAQ ITC instrument (Malvern) in a buffer of 50 mM NaCl, 20 mM HEPES pH 7.5, and 2 mM β-mercaptoethanol. […]

A further assay deals with T2, Krimper eTud1ΔC (Drosophila melanogaster, UniProt A1ZAC4).
T2 construct: Krimper contains two extended Tudor domains: eTud1(272-512) and eTud2 (562-746); made in house
Type of assay: binding. Conditions: ITC, Fig. 1f, unmethylated Ago3-2 peptide. The method, then: All ITC was performed using the Malvern PEAQ ITC instrument (Malvern) in a buffer of 50 mM NaCl, 20 mM HEPES pH 7.5, and 2 mM β-mercaptoethanol. Data analysis was performed using the Malvern data analysis software and Origin 7.0.

In assay [3] the target is T3, Krimper eTud2 (residues 562-746) (Drosophila melanogaster, UniProt A1ZAC4 562-746).
T3 chain: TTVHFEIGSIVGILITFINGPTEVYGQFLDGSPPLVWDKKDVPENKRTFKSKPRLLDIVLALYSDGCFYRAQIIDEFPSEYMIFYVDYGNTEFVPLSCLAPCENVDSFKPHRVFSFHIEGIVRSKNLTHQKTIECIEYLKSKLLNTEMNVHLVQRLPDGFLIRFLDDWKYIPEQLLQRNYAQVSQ
Briefly: ITC; R72me2.

Assay [4] addresses T3, Krimper eTud2 (residues 562-746). Briefly: ITC; R15me2.
Assay [5] shares this target. Briefly: ITC; R70me2.
Assay [6] shares this target. Briefly: ITC; R68me2.

Where no end group is shown, it is not given here. [ ]: non-standard residue; d: D form. Arg(Me2s) = CN=C(NC)NCCC[C@H](N)C(=O)O

Take “Ago3-2 peptide (aa residues 63-78 of Ago3) (from UniProt Q7PLK0 63-78)”: the Kd – broadly, a measure of binding affinity in units of concentration – in assay [1] came to 62.8 µM. That is a double-digit micromolar value. Turning to “H-NPVIARGRGRGRK-OH [Aub-1, unmethylated peptide from the N-terminal RG-repeat region of Aub used for ITC and structural analysis]”, the “binding to eTud1 (in words)” value in assay [2] is given as “does not detectably interact”. For NISVGRGRARLIDTLK [Ago3-2], the “binding affinity of eTud1 ΔC compared with eTud1 (in words)” value on Krimper eTud1ΔC is reported as “higher binding affinity”. In assay [3], NISVGRGRA[Arg(Me2s)]LIDTLK [Ago3-2 peptide methylated at R72] returned a Kd of 34.5 µM. Take NPVIARGRGRGRK (also: symmetric dimethylarginine at R15) [Aub-R15me2 peptide]: the dissociation constant Kd in assay [4] was 8.26 µM. Consider NISVGRG[Arg(Me2s)]ARLIDTLK [Ago3-2 peptide methylated at R70], for which the equilibrium dissociation constant (Kd) in assay [5] was 2.2 µM. As to NISVG[Arg(Me2s)]GRARLIDTLK [Ago3-2 peptide methylated at R68], in assay [6], the Kd amounted to 6.67 µM.
